The results in this text go back to PMC5159498, “IQGAP1 Interaction with RHO Family Proteins Revisited” (The Journal of Biological Chemistry, 2016).

What all share (assay): fluorescence polarisation; IQGAP1 variant titrated to mGppNHp-bound RHO protein (1 μM); equilibrium Kd (eKd), quadratic fit; 30 mM Tris/HCl pH 7.5, 150 mM NaCl, 5 mM MgCl2, 3 mM DTT, 25 °C
Holding throughout (conditions): both partners purified
(In fluorescence polarisation assays a small probe gives low polarisation when free and higher when bound to something large.)

Experiment [1] has as its target T1, IQGAP1 GRD1-RGCT wild type (aa 877-1558) (human, UniProt P46940 877-1558).
T1 construct: human IQGAP1, GRD and RGCT domains, lacks the last 99 amino acids, aa 877-1558; also called GRD1-RGCT^WT; IQGAP1^877-1558
T1 sequence (looked up): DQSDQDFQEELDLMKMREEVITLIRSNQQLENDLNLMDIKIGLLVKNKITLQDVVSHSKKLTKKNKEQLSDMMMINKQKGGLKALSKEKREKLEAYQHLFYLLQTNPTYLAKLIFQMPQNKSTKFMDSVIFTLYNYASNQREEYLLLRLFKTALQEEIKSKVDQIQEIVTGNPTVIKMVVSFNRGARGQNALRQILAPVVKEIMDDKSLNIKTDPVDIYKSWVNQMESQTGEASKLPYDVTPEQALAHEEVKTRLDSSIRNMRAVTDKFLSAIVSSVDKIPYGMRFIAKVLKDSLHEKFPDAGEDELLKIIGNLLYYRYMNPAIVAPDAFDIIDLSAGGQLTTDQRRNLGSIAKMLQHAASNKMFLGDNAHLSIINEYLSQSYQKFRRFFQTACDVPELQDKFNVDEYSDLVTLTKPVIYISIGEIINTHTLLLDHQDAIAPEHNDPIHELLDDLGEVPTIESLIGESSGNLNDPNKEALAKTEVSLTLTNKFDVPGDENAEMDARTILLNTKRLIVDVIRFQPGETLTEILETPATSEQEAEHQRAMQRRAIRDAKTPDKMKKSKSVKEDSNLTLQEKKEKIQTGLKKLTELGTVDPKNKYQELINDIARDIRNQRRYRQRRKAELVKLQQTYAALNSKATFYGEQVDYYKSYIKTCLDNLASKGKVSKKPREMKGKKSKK

In experiment [2] the target is T2, IQGAP1 GRD1-RGCT S1441E (aa 877-1558) (human, UniProt P46940 877-1558, S1441E).
T2 construct: human IQGAP1 aa 877-1558 with the phosphomimetic mutation S1441E, from the vector pET46 EkLIC; source: E. coli (pLysS BL21(DE3), CodonPlusRIL or BL21(Rosetta)), purified (Ni-NTA, gel filtration)
T2 sequence (looked up): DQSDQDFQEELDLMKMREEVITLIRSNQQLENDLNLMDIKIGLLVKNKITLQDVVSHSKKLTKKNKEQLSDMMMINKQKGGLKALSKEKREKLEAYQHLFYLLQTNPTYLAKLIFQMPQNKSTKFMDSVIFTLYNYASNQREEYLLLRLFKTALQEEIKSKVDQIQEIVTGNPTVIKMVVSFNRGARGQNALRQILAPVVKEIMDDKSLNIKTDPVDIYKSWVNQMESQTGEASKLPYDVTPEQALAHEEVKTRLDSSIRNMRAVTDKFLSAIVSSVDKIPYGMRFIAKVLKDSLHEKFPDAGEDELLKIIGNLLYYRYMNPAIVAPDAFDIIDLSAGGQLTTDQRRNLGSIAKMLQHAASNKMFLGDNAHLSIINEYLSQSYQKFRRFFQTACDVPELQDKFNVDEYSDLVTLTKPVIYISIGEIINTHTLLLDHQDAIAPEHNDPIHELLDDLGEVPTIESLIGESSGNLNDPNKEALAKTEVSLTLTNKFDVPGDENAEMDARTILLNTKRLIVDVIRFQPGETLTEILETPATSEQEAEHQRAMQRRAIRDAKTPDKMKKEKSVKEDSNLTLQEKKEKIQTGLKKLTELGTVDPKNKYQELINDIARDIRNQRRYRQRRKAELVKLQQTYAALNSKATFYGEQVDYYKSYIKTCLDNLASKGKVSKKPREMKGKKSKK

For experiment [3], the target named is T3, IQGAP1 GRD1-CT (aa 863-1657) (human, UniProt P46940 863-1657).
T3 construct: human IQGAP1, GRD, RGCT and CT domains, aa 863-1657; The GST tag was cleaved 'if needed'; also called C-terminal half of IQGAP1; C-terminal 795 amino acids of IQGAP1
T3 sequence (looked up): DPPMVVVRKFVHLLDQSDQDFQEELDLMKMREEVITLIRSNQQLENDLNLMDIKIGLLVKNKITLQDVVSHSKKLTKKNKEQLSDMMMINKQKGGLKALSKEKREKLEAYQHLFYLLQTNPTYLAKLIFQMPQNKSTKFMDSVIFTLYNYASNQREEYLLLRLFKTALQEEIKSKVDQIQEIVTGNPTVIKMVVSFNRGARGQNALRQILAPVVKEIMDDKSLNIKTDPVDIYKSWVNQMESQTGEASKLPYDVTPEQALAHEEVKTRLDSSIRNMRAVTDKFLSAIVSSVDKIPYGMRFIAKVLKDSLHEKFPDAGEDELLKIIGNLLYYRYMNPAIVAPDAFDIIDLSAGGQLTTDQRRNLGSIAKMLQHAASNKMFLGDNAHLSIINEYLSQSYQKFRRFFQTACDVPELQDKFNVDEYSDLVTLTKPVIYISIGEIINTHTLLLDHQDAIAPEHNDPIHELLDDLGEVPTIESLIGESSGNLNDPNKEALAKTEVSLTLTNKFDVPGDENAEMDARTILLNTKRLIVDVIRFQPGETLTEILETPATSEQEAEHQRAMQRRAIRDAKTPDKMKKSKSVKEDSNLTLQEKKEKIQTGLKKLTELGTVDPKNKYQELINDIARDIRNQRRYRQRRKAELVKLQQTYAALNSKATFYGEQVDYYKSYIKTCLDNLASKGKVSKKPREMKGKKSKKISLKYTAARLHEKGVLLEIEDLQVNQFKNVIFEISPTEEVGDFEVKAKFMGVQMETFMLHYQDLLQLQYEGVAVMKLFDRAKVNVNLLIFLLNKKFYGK

B1: CDC42 (aa 1-178) (domain or fragment)
chain: not shown
notes: human CDC42, C-terminally truncated, aa 1-178; Loaded non-covalently with mGppNHp, tGppNHp, mGDP or non-fluorescent GppNHp; the nucleotide is named in the format of each assay; also called CDC42^WT; CDC42-mGppNHp
With B1, the Kd in experiment [1] was determined as 4.6 µM; in experiment [2] it was 3.6 µM; in experiment [3] it was 3.4 µM.

As a reminder, the Kd is a measure of binding affinity in units of concentration.
